Patent publication US20030032045

Target: in vitro translated, 35S-labeled PARP (full length human poly(ADP-ribose) polymerase), P09874
Sequence (P09874 whole entry, looked up): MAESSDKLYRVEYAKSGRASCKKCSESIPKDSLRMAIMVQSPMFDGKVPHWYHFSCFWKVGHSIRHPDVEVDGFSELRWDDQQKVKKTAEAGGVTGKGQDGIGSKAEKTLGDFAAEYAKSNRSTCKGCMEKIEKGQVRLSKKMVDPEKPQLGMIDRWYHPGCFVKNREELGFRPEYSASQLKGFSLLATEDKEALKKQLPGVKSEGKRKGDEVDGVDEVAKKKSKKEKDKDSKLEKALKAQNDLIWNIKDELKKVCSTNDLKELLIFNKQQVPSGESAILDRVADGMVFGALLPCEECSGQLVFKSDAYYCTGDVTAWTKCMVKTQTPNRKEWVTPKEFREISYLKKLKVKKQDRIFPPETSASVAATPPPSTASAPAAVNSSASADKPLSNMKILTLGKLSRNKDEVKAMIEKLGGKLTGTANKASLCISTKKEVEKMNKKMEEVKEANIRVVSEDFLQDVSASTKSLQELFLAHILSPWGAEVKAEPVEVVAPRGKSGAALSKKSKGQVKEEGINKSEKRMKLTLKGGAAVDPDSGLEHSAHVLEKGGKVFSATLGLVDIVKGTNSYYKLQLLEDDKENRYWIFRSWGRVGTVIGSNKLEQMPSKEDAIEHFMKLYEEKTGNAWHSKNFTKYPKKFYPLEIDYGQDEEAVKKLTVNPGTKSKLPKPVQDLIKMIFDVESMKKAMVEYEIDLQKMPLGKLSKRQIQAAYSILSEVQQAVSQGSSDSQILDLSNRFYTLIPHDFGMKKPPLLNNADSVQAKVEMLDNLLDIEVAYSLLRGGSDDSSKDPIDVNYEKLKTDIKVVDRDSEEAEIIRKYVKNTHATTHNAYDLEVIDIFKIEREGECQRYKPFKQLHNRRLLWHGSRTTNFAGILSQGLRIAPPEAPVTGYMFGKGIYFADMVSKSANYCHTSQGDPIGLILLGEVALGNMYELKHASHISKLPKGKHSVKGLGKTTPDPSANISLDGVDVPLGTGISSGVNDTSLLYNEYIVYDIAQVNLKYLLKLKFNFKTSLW

B1: CPP32 (endogenous, in HeLa cell S-100) (protein)
chain: MENTENSVDSKSIKNLEPKIIHGSESMDSGISLDNSYKMDYPEMGLCIIINNKNFHKSTGMTSRSGTDVDAANLRETFRNLKYEVRNKNDLTREEIVELMRDVSKEDHSKRSSFVCVLLSHGEEGIIFGTNGPVDLKKITNFFRGDRCRSLTGKPKLFIIQACRGTELDCGIETDSGVDDDMACHKIPVEADFLYAYSTAPGYYSWRNSKDGSWFIQSLCAMLKQYADKLEFMHILTRVNRKVATEFESFSFDATFHAKKQIPCIVSMLTKELYFYH
cleavage of 35S-labeled PARP (SDS-PAGE, autoradiography): The activated extracts readily cleaved PARP into 85 kDa and 24 kDa fragments
